{
  "source": "paper PMC8068094",
  "key": {"[1]": {"molecular_target": "Munc13L with C-terminal Halo tag (Munc13-1 residues 529-1735, C1-C2B-MUN-C2C domains, residues 1408-1452 replaced by EF) (UniProt Q62768)", "test": "two-colour step-bleaching of co-clusters on a supported lipid bilayer"}, "[2]": {"molecular_target": "Munc13L with C-terminal Halo tag (Munc13-1 residues 529-1735, C1-C2B-MUN-C2C domains, residues 1408-1452 replaced by EF) (UniProt Q62768)", "test": "two-colour TIRF co-localisation on a supported lipid bilayer"}},
  "data": [
    {"substance": "single-cysteine (S28C) version of SNAP25^WT labeled with AlexaFluor555 (from UniProt P60879 1-206) (natural protein)", "values": [
      {"measurement": "stoichiometry N (mole SNAP25/mole Munc13L)", "setting": "[1]", "result": 0.8},
      {"measurement": "Manders' coefficient (SNAP25:Munc13L) at 50 nM Munc13L", "setting": "[2]", "result": 0.2},
      {"measurement": "Manders' coefficient (SNAP25:Munc13L) at 1 μM Munc13L", "setting": "[2]", "result": 0.6},
      {"measurement": "Manders' coefficient at 1 μM Munc13L", "setting": "[2]", "result": 0.7}
    ]}
  ]
}
